From publication PMC5344419, “The structure of FKBP38 in complex with the MEEVD tetratricopeptide binding-motif of Hsp90” (PLoS ONE, 2017)
“Also recorded” adds a separate entry of the source. Read-outs that look alike come from different tables or passages of the source.

Experiments:
yeast Hsp90 = tested on: yeast Hsp90; design: method as in 2 sources, ref [41] = [41]; PMID 12504007; doi:10.1016/s1097-2765(02)00785-2; 41 Panaretou B , Siligardi G , Meyer P , Maloney A , Sullivan JK , Singh S , et al Activation of the ATPase activity of hsp90 by the stress-regulated cochaperone aha1 . Mol Cell . 2002; 10 ( 6 ): 130 ||| ref [42] = [42]; PMID 9927435; doi:10.1093/emboj/18.3.754; 42 Prodromou C , Siligardi G , O'Brien R , Woolfson DN , Regan L , Panaretou B , et al Regulation of Hsp90 ATPase activity by tetratricopeptide repeat (TPR)-domain co-chaperones . Embo J . 1999; 18; details: cited from earlier work
FKBP^1-380 [1] = biological target: T1, FKBP^1-380 (Homo sapiens, UniProt Q14318); assay: Isothermal titration calorimetry (ITC), binding to FKBP^1-380 (FKBP8 isoform lacking the transmembrane domain); details: ITC (ITC200); intact protein or domain fragment; 20 mM Tris, 300 mM NaCl, 1mM EDTA pH 7.5; method: 700 to 800 μM FKBP injected into 50 μM Hsp90; Fig 2 picture: Hsp90β into FKBP^1-380 (panel C)
T1 construct: representing amino acids 1–380 and lacking the C-terminal trans-membrane helix; made in house; host or cells: E. coli BL21 (DE3)
Source text: (§1) FKBP8 (FKBP^1-380) was cloned as an NdeI-HindIII fragment representing amino acids 1–380 and lacking the C-terminal trans-membrane helix into pDMXV4 with a non-cleavable C-terminal His6-Tag (Fig 1). The FKBP38 immunophilin domain, representing amino acids 92–207 (FKBP^92-207), and a larger fragment containing both the immunophilin and TPR domain (FKBP^92-380) were also cloned in pDMXV4 (Fig 1). The K307E mutation was generated in the FKBP8^92-380 construct by PCR mutagenesis. Full-length human Hsp90β, human Hsp70, two middle domain human fragments (Hsp90β^295–689 and Hsp90β^295–724) and a yeast C-terminal fragment of Hsp90 (yHsp90^546-709) were expressed from pRSETA as His-tagged fusions. The Hsp90α^464–732 construct was expressed from p2E (A. Oliver, University of Sussex), as a PreScission cleavable His-tagged fusion. […]
(§2) Proteins were dialysed overnight into 20 mM Tris, 300 mM NaCl, 1mM EDTA pH 7.5. The heat of interaction was measured on an ITC200 microcalorimeter (Microcal), with a cell volume of 200 μL, under the same buffer conditions. […] Heats of dilution were determined in a separate experiment by diluting protein into buffer, and the corrected data were fitted using a non-linear least-squares curve-fitting algorithm (Microcal Origin) with three floating variables: stoichiometry, binding constant and change in enthalpy of interaction.

FKBP^92-207 = assay: Isothermal titration calorimetry (ITC), binding to the immunophilin domain alone; details: full-length Hsp90β, 20 mM Tris, 300 mM NaCl, 1mM EDTA pH 7.5, 700 to 800 μM FKBP^92-207 injected into 50 μM Hsp90β
Source text: as §1, §2

FKBP^92-380 [2] = assay: Isothermal titration calorimetry (ITC), binding to FKBP^92-380 (FKBP38 isoform); details: ITC (ITC200); 20 mM Tris, 300 mM NaCl, 1mM EDTA pH 7.5; 700 to 800 μM FKBP^92-380 injected into 50 μM intact Hsp90β
Source text: as §1, §2

FKBP^92-380 [3] = assay: Analytical gel-filtration chromatography, co-migration with FKBP^92-380; assay type: binding; details: Superdex 200; equimolar mixture; 50 mM Tris, 300 mM NaCl, 1 mM EDTA, 0.5 mM TCEP, pH 7.5
Method: Equimolar concentrations of the C-terminal fragment of yHsp90^546-709 and FKBP^92-380 were mixed and loaded onto an analytical Superdex 200 column equilibrated in 50 mM Tris, 300 mM NaCl, 1 mM EDTA and 0.5 mM TCEP at pH 7.5.

FKBP^1-380 [4] = biological target: T1, FKBP^1-380; assay: Gel-filtration chromatography, co-migration with FKBP^1-380 (as in the legend of Fig 2L); assay type: binding; details: Fig 2L legend: yHsp90^546-709, FKBP^1-380 and their mixture; Superdex 200, pH 7.5
[5] = tested on: K307E mutant of FKBP^92-380; assay: Isothermal titration calorimetry (ITC), binding to the K307E carboxylate clamp mutant; details: 20 mM Tris, 300 mM NaCl, 1mM EDTA pH 7.5, 700 to 800 μM mutant injected into 50 μM yeast Hsp90^546-709
Source text: as §1, §2

T1 sequence (Q14318 1-380): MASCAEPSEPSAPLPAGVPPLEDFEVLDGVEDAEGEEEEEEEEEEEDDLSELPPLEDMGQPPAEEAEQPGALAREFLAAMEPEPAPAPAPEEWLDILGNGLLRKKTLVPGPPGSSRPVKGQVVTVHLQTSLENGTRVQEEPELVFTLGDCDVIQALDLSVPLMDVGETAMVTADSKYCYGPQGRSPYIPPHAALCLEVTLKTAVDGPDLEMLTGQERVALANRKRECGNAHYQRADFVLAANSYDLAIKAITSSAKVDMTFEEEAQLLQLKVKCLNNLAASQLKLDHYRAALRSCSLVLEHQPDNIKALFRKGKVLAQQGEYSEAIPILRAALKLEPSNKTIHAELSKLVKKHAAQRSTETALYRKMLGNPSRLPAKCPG

Cpr6: yeast peptidyl-propyl isomerase
effect on ATPase activity of yeast Hsp90 (yeast Hsp90; peptidyl-propyl isomerase Cpr6, previous studies, ref [41]): weakly activates

Hsp90β: Full-length human Hsp90β, expressed as His-tagged fusion
Kd (FKBP^1-380 [1]): 2.8 ± 0.1 µM
binding (in words) (FKBP^92-207): failed to bind
Kd (FKBP^92-380 [2]): 2.6 ± 0.2 µM

yHsp90^546-709: yeast C-terminal fragment of Hsp90
co-migration in gel filtration (FKBP^92-380 [3]): co-migrated
co-migration in gel filtration (FKBP^1-380 [4]): co-migrate as a complex
binding (in words) [5]: failed to bind

Hsp90β^295-724: fragment representing the middle and C-terminal domain of Hsp90β
Kd (FKBP^1-380 [1]): 6.4 ± 0.5 µM

Sti1: TPR domain protein Sti1 (HOP in humans)
effect on ATPase activity of yeast Hsp90 (yeast Hsp90; TPR domain protein Sti1 (HOP in humans), previous studies, ref [42]): inhibit; also recorded: strong inhibitor
